The source of these data is US20230331827A1, “POTASSIUM CHANNEL INHIBITORS” (priority 2017, published 2023).

The target of test [1] is T1, human ASIC1a (human) (UniProt P78348).
T1 sequence (looked up): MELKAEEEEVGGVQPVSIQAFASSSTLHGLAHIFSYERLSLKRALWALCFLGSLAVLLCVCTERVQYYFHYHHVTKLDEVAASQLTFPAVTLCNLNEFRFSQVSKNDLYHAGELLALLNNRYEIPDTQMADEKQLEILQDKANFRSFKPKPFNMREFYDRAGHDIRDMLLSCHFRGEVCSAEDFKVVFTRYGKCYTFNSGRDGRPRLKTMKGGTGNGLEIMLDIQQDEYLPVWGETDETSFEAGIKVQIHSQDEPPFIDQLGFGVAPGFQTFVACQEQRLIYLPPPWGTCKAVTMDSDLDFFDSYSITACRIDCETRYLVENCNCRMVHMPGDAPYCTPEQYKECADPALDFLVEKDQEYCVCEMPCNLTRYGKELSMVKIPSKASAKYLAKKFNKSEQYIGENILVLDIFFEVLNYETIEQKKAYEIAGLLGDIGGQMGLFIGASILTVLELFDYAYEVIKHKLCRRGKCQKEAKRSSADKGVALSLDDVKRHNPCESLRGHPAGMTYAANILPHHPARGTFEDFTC
The experiment in a line: cell-based or functional assay.

For test [2], the target named is human Kv1.1 (human) (UniProt Q09470). Kind of test: cell-based or functional assay.
human Kv1.1 (human), sequence (Q09470 whole entry): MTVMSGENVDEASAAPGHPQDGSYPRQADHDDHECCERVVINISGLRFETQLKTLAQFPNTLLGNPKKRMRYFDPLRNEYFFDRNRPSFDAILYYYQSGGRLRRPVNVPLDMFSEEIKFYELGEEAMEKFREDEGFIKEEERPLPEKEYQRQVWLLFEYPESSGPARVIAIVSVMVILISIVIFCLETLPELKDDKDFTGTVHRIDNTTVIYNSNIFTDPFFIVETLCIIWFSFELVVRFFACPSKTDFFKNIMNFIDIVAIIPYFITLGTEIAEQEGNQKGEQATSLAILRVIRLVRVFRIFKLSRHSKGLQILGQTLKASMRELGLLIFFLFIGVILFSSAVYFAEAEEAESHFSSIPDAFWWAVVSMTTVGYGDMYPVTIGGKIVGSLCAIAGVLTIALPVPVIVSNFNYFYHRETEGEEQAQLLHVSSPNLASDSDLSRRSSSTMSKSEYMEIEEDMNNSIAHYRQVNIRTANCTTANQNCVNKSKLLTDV
Test [3] addresses human Kv1.3 (human) (UniProt P22001). Kind of test: cell-based or functional assay.
For test [4] the target is unchanged. Kind of test: cell-based or functional assay. The source holds these as a separate data set.
The target of test [5] is trypsin. Kind of test: monoclonal phage ELISA on trypsin.
For test [6], the target named is trypsin. The experiment in a line: flow cytometry, biotinylated trypsin/streptavidin-APC.
In test [7] the target is trypsin. The experiment in a line: flow cytometry of HEK293 cells displaying the scFv-Fc, 15 days post transfection after blasticidin selection; untransfected cells (panel C): Q2 0.043.

Positions count from the first letter of the chain named. Names and notes keep the numbering of the source. Read-outs that look alike come from different tables or passages of the source.

human Kv1.3 (human), sequence (P22001 whole entry): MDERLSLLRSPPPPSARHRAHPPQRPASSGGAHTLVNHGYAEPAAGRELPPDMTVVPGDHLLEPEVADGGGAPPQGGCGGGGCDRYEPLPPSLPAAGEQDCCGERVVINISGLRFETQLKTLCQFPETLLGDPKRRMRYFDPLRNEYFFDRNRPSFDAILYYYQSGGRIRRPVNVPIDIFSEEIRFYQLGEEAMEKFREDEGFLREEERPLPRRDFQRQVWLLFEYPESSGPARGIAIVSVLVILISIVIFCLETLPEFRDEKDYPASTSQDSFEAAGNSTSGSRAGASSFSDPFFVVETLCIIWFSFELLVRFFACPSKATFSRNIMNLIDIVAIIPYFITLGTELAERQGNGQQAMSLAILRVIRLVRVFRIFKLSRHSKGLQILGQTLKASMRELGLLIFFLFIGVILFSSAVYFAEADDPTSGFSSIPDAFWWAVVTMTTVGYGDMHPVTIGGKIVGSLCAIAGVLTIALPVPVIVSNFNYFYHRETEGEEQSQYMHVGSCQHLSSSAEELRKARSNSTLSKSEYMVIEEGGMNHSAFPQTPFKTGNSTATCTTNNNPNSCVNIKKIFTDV

B1: KB_A07 IgG1 (EETI-II fusion) (antibody, V domains shown)
VH: EVQLVESGGGLVRPGGSLRLSCAASGFTFSSYAMSWVRQAPGKGLEWVSAISGSGGSTYYADSVKGRFTISRDNTKNSLYLQMTSLRADDTAFYYCVKDFGPGYGTGWFDYWGPGTLVTVSS
VL: YLNWYQQKPGKAPKLLIYAAGVCPRILMRCKQDSDCLAGCVCGPNGFCGSRSGVPSRFSGSGSGTDFTLTISSLQPEDFATYYCQQGASPPYTFGQGTKVEIKR
Turning to B1, the % ASIC1a current remaining at 6 µM, QPatch in test [1] stood at 70.9%. In addition, the IC50, channel current, QPatch patch clamp in test [2] and in test [3] was more than 10000 nM throughout. This molecule also came in with an IC50, huKv1.3 current, QPatch patch clamp in test [3] of more than 10000 nM.

B2: KB_A12_ADWX1 short (antibody, V domains shown)
VH: B1 VH
VL: NWYQQLPGKAPKLLIYAAGRVKCKHSRQCLKPCKDAGMRFGKCTNGKCHCTPKANSGVSDRFSAAKSGTSASLAINGLRSEDEADYYCAAWDDSLNGYVFGTGTKLTVLG
In turn, B2 returned an IC50, huKv1.3 current, QPatch patch clamp in test [4] of 170 nM. In addition, the Kv1.1 IC50, QPatch patch clamp in test [2] worked out at 1400 nM. In test [3], the Fold difference (Kv1.1 IC50 against Kv1.3 IC50) came to 6 fold and the Kv1.3 IC50, QPatch patch clamp is 251 nM.

B3: KB_A12_HsTx1 (antibody, V domains shown)
VH: B1 VH
VL: NWYQQLPGKAPKLLIYAAGRASCRTPKDCADPCRKETGCPYGKCMNRKCKCNRCANSGVSDRFSAAKSGTSASLAINGLRSEDEADYYCAAWDDSLNGYVFGTGTKLTVLG
In turn, B3 gave an IC50, huKv1.3 current, QPatch patch clamp in test [4] of 3.9 nM. Besides, the Kv1.1 IC50, QPatch patch clamp in test [2] is 650 nM. Besides, in test [3], the Fold difference (Kv1.1 IC50 against Kv1.3 IC50) amounted to 43 fold and the Kv1.3 IC50, QPatch patch clamp was 15 nM.

B4: E01 (EET 5-3 KnotBody) (scFv, V domains shown)
VH: B1 VH
VL: AVNWYQQLPGKAPKLLIYAAGGCGPNGFCGSGSDGGVCPRILMRCKQDSDCLAGCGIHSGVSDRFSDSKSGTSASLAISGLQSEDEADYYCAAWDDSLNGYVFGTGTKLTVLG
Consider B4, for which the ELISA signal in test [5] is 128000.

B5: KB_A12_Odk2 short (antibody, V domains shown)
VH: B1 VH
VL: B2 VL with K24R, H25G, R27P, L30I, K31Q, T44M
Consider B5, for which the IC50, huKv1.3 current, QPatch patch clamp in test [4] is 64 nM. This molecule returned a Kv1.1 IC50, QPatch patch clamp in test [2] of 380 nM. In test [3], this molecule came in with a Fold difference (Kv1.1 IC50 against Kv1.3 IC50) of 8 fold and a Kv1.3 IC50, QPatch patch clamp of 49 nM.

B6: G11 (EET 5-3 KnotBody) (scFv, V domains shown)
VH: B1 VH
VL: AVNWYQQLPGKAPKLLIYAAGGCGPNGFCGSGSDGGVCPRILMRCKQDSDCLAGCGQSSGVSDRFSGSKSGTSATLDITGLQTGDEADYYCGTWDNSLSVGVFGGGTKVTVLG
Take B6: the ELISA signal in test [5] turned out to be 27600.

B7: KB_A07 scFv-Fc displayed on HEK293 cells (Fc fusion)
VH: B1 VH
VL: DIQMTQSPSSLSASVGDRVTITCRASQSISSYLNWYQQKPGKAPKLLIYAAGVCPRILMRCKQDSDCLAGCVCGPNGFCGSRSGVPSRFSGSGSGTDFTLTISSLQPEDFATYYCQQGASPPYTFGQGTKVEIKRT
In test [6], B7 returned a % of transfected HEK293 cells dual stained for Fc and trypsin of 34%. The Q2, share of cells stained by both anti-Fc-PE (FL2) and biotinylated trypsin/streptavidin-APC (FL4) in test [7] was found to be 33.8%.

B8: KB_A12_Vm24 (antibody, V domains shown)
VH: B1 VH
VL: QSVLTQPPSVSEAPRQRVTITCSGSSSNIGNNAVNWYQQLPGKAPKLLIYAAGRAAAISCVGSPECPPKCRAQGCKNGKCMNRKCKCYYCANSGVSDRFSAAKSGTSASLAINGLRSEDEADYYCAAWDDSLNGYVFGTGTKLTVLG
The molecule B8 registered an IC50, huKv1.3 current, QPatch patch clamp in test [4] of 16 nM. Further, the Kv1.1 IC50, QPatch patch clamp in test [2] worked out at 1220 nM. Further, in test [3], the Fold difference (Kv1.1 IC50 against Kv1.3 IC50) worked out at 102 fold and the Kv1.3 IC50, QPatch patch clamp amounted to 12 nM.

B9: F03 (EET 5-3 KnotBody) (scFv, V domains shown)
VH: B1 VH
VL: AVNWYQQLPGRAPKLLIYAAGGCGPNGFCGSGGDGGVCPRILMRCKQDSDCLAGCGAHSGIPERFSGSKSGTSASLAISGLRSEDEADYYCAAWDDSLNGWVFGGGTKVTVLG
In turn, B9 registered an ELISA signal in test [5] of 68000.

B10: E08 (EET 5-3 KnotBody) (scFv, V domains shown)
VH: B1 VH
VL: B4 VL with H58Q, V61I, S62P, D63E, D67G, Q82R, S97N, N99S
On to B10, for which, in test [5], the ELISA signal is 121000.

B11: F07 (EET 5-3 KnotBody) (scFv, V domains shown)
VH: B1 VH
VL: B4 VL with I57G, H58Q, S62P, D67G, G80R, G100A, L109V
For B11, the ELISA signal in test [5] was found to be 72800.

B12: KB_A12_KTX (antibody)
VH: B1 VH
VL: QSVLTQPPSVSEAPRQRVTITCSGSSSNIGNNAVNWYQQLPGKAPKLLIYAAGRGVEINVKCSGSPQCLKPCKDAGMRFGKCMNRKCHCTPKANSGVSDRFSAAKSGTSASLAINGLRSEDEADYYCAAWDDSLNGYVFGTGTKLTVLGQP
In turn, B12 had an IC50, huKv1.3 current, QPatch patch clamp in test [4] of 430 nM. Further, the Kv1.1 IC50, QPatch patch clamp in test [2] was 4800 nM. In test [3], this molecule showed a Fold difference (Kv1.1 IC50 against Kv1.3 IC50) of 3 fold; an IC50, huKv1.3 current, QPatch patch clamp of more than 10000 nM; a Kv1.3 IC50, QPatch patch clamp of 1540 nM.

B13: KB_A12_AnTx-N17A/F32T (antibody, V domains shown)
VH: B1 VH
VL: QSVLTQPPSVSEAPRQRVTITCSGSSSNIGNNAVNWYQQLPGKAPKLLIYAAGRQKECTGPQHCTNFCRKAKCTHGKCMNRKCKCTNCKANSGVSDRFSAAKSGTSASLAINGLRSEDEADYYCAAWDDSLNGYVFGTGTKLTVLG
In turn, B13 displayed an IC50, huKv1.3 current, QPatch patch clamp in test [4] of 85 nM. In test [2], this molecule had a Kv1.1 IC50, QPatch patch clamp of 10300 nM. Further, in test [3], the Fold difference (Kv1.1 IC50 against Kv1.3 IC50) amounted to 94 fold and the Kv1.3 IC50, QPatch patch clamp is 110 nM.

B14: KB_A12_ShK (antibody, V domains shown)
VH: B1 VH
VL: NWYQQLPGKAPKLLIYAAGRRSCIDTIPKSRCTAFQCKHSMKYRLSFCRKTCGTCANSGVSDRFSAAKSGTSASLAINGLRSEDEADYYCAAWDDSLNGYVFGTGTKLTVLG
The molecule B14 displayed an IC50, huKv1.3 current, QPatch patch clamp in test [4] of 8.6 nM. In test [2], this molecule gave a Kv1.1 IC50, QPatch patch clamp of 40 nM. Besides, in test [3], the Fold difference (Kv1.1 IC50 against Kv1.3 IC50) was 3 fold; the IC50, huKv1.3 current, QPatch patch clamp stood at 20 nM; the Kv1.3 IC50, QPatch patch clamp stood at 13 nM.

B15: E03 (EET 5-3 KnotBody) (scFv, V domains shown)
VH: B1 VH
VL: AVNWYQQLPGKAPKLLIYAAGGCGPNGFCGSGSDGGVCPRILMRCKQDSDCLAGCGRNSGIPERFSGSKSGHTATLTISRVEAGDEADYYCQVWDSSSDHVLFGGGTKLTVLG
Take B15: the ELISA signal in test [5] worked out at 82500.

B16: C09 (EET 5-3 KnotBody) (scFv, V domains shown)
VH: B1 VH
VL: SEAPRQRVTITCGGKRCGPNGFCGSGSDGGVCPRILMRCKQDSDCLAGCTSNWYQQKPGQAPVLVVQDDSVRPSGIPERFSGSNSGNTATLTISRVEAGDGADYYCQVWDISSDLGVFGGGTKLTVLG
B16 showed an ELISA signal in test [5] of 9820.

B17: KB_A12_Odk2 (antibody, V domains shown)
VH: B1 VH
VL: QSVLTQPPSVSEAPRQRVTITCSGSSSNIGNNAVNWYQQLPGKAPKLLIYAAGRGVPTDVKCRGSPQCIQPCKDAGMRFGKCMNGKCHCTPKANSGVSDRFSAAKSGTSASLAINGLRSEDEADYYCAAWDDSLNGYVFGTGTKLTVLG
Take B17: in test [4], the IC50, huKv1.3 current, QPatch patch clamp came out at 222 nM. In addition, in test [2], the Kv1.1 IC50, QPatch patch clamp came out at 2750 nM. In test [3], the Fold difference (Kv1.1 IC50 against Kv1.3 IC50) amounted to 6 fold and the Kv1.3 IC50, QPatch patch clamp came to 457 nM.

B18: F01 (EET 5-3 KnotBody) (scFv, V domains shown)
VH: B1 VH
VL: YLNWYQQKPGKAPKLLIDAAGECGPNGFCGSGSDGGVCPRINMRCKQDSDCLAGCGRDSGVPSRFSGSGSGTDFTLTISSLQPEDFATYYCQQSYSTPWTFGQGTKVEIKR
The molecule B18 displayed an ELISA signal in test [5] of 102000.

B19: E05 (EET 5-3 KnotBody) (scFv, V domains shown)
VH: B1 VH
VL: B9 VL with R11K, G33S, H58Q, R82Q, D88H, W101Y, G105T
B19 displayed an ELISA signal in test [5] of 119000.

B20: KB_A12 IgG1 (EETI-II fusion) (antibody, V domains shown)
VH: B1 VH
VL: AVNWYQQLPGKAPKLLIYAAGRCPRILMRCKQDSDCLAGCVCGPNGFCGANSGVSDRFSAAKSGTSASLAINGLRSEDEADYYCAAWDDSLNGYVFGTGTKLTVLG
In test [1], B20 displayed a % ASIC1a current remaining at 3.3 µM, QPatch of 67.4%. For the same molecule, the IC50, channel current, QPatch patch clamp in test [2] is more than 10000 nM. In test [3], this molecule returned an IC50, channel current, QPatch patch clamp of more than 10000 nM and an IC50, huKv1.3 current, QPatch patch clamp of more than 10000 nM.

B21: E09 (EET 5-3 KnotBody) (scFv, V domains shown)
VH: B1 VH
VL: B4 VL with I57T, H58Q, V61I, S62P, D63E, D67G, Q82R, N99R, G100A, K108Q
For B21, the ELISA signal in test [5] turned out to be 70300.
